{"source": "patent US20070196376A1", "about": "(AstraZeneca / MedImmune, published 2007)", "key": {"[1]": {"molecular_target": "T1, human insulin-like growth factor-I (IGF-I) (human, UniProt P05019 49-118)", "experiment": "cell-based or functional assay"}, "[2]": {"molecular_target": "T2, human insulin-like growth factor-II (IGF-II) (human, UniProt P01344 25-91)", "experiment": "cell-based or functional assay"}, "[3]": {"molecular_target": "T2, human insulin-like growth factor-II …", "experiment": "cell-based or functional assay", "remark": "listed apart in the source"}, "[4]": {"molecular_target": "mouse IGF-I (mouse, UniProt P05017 49-118)", "experiment": "cell-based or functional assay"}, "[5]": {"molecular_target": "mouse IGF-II (mouse, UniProt P09535 25-91)", "experiment": "cell-based or functional assay"}, "[6]": {"molecular_target": "T1, human insulin-like growth factor-I …", "experiment": "Biacore low-resolution analysis, IGF-I"}, "[7]": {"molecular_target": "T1, human insulin-like growth factor-I …", "experiment": "cell-based or functional assay", "remark": "listed apart in the source"}, "[8]": {"molecular_target": "T2, human insulin-like growth factor-II …", "experiment": "cell-based or functional assay", "remark": "listed apart in the source"}, "[9]": {"molecular_target": "T2, human insulin-like growth factor-II …", "experiment": "Biacore low-resolution analysis, IGF-II"}, "[10]": {"molecular_target": "T1, human insulin-like growth factor-I …", "experiment": "cell-based or functional assay", "remark": "listed apart in the source"}, "[11]": {"molecular_target": "T2, human insulin-like growth factor-II …", "experiment": "cell-based or functional assay", "remark": "listed apart in the source"}, "[12]": {"molecular_target": "T2, human insulin-like growth factor-II …", "experiment": "Biacore high-resolution, mAb captured, IGF-II injected over a range of concentrations"}, "[13]": {"molecular_target": "T2, human insulin-like growth factor-II …", "experiment": "Biacore low-resolution screen, mAb captured, IGF-II injected"}, "[14]": {"molecular_target": "T1, human insulin-like growth factor-I …", "experiment": "Biacore low-resolution screen, mAb captured, IGF-I injected"}, "[15]": {"molecular_target": "T1, human insulin-like growth factor-I …", "experiment": "Biacore high-resolution, mAb captured, IGF-I injected over a range of concentrations"}, "[16]": {"molecular_target": "T3, IGF-I/IGFBP-3 complex (UniProt P05019 49-118)", "T3 construct": "Preformed non-covalent complex; IGF-I 99.97% complexed by IGFBP-3; also called complexed IGF-I/IGFBP-3", "experiment": "Biacore, mAb immobilised, preformed complex injected"}, "[17]": {"molecular_target": "T4, IGF-II/IGFBP-3 complex (UniProt P01344 25-91)", "T4 construct": "Preformed non-covalent complex; IGF-II 99.97% complexed by IGFBP-3; also called complexed IGF-II/IGFBP-3", "experiment": "Biacore, mAb immobilised, preformed complex injected"}, "[18]": {"molecular_target": "T5, Recombinant human IGF-I (insulin-like growth factor-I) (human, UniProt P05019 49-118)", "T5 construct": "Bought; also called IGF1; IGF-1", "experiment": "limited antigen ELISA, supernatant 1:25"}, "[19]": {"molecular_target": "T6, Recombinant human IGF-II (insulin-like growth factor-II) (human, UniProt P01344 25-91)", "T6 construct": "Bought; also called IGF2; IGF-2", "experiment": "limited antigen ELISA, supernatant 1:25"}, "[20]": {"molecular_target": "T7, human insulin (human, UniProt P01308 25-54; P01308 90-110, limits assumed)", "T7 construct": "The mature hormone has an A and a B chain cut from the precursor; also called recombinant insulin; hu-Insulin", "experiment": "Biacore, mAb on CM5 chip, insulin injected"}}}
{"binder": "mAb 7.251.3 (antibody, V domains shown, Fully human XenoMouse hybridoma mAb, lambda light chain (V1-13/JL2); also called ATCC PTA-7422) VH: QVQLQESGPGLVKPSETLSLTCTVSGGSISSYYWSWIRQPPGKGLEWIGYFFYSGYTNYNPSLKSRVTISVDTSKNQFSLKLSSVTAADTAVYYCACITGTTKGGMDVWGQGTTVTVSS VL: QSVLTQPPSVSGAPGQRVTISCTGSSSNIGAGYDVHWYQQLPGTAPKLLIYGNNNRPSGVPDRFSGSKSGTSASLAITGLQADDEADYYCQSFDSSLSGSVFGGGTKLTVLG", "values": [{"measurement": "% Inhibition, mean (n = 3), IGF-I Proliferation Assay, NIH3T3/hIGF-IR cells", "setting": "[1]", "result": 72.4, "unit": "%"}, {"measurement": "EC50 (nM), mean (n = 3), IGF-I Proliferation Assay, NIH3T3/hIGF-IR cells", "setting": "[1]", "result": 38.9, "unit": "nM"}, {"measurement": "% Inhibition, mean (n = 2), IGF-II Proliferation Assay, NIH3T3/hIGF-IR cells", "setting": "[2]", "result": 79.2, "unit": "%"}, {"measurement": "EC50 (nM), mean (n = 2), IGF-II Proliferation Assay, NIH3T3/hIGF-IR cells", "setting": "[2]", "result": 22, "unit": "nM"}, {"measurement": "EC50 (nM), n = 1, IGF-II Proliferation, BxPC3 cells", "setting": "[3]", "result": 0.5, "unit": "nM"}, {"measurement": "EC50 (nM), n = 2, IGF-II Proliferation, BxPC3 cells", "setting": "[3]", "result": 4.4, "unit": "nM"}, {"measurement": "Max % Inhibition (133.3 nM), n = 2, IGF-II Proliferation, BxPC3 cells", "setting": "[3]", "result": 105, "unit": "%"}, {"measurement": "Max % Inhibition (333.3 nM), n = 1, IGF-II Proliferation, BxPC3 cells", "setting": "[3]", "result": 128, "unit": "%"}, {"measurement": "Mouse IGF-I EC50 (nM), n = 1, phosphorylation of hIGF-IR in NIH3T3 cells", "setting": "[4]", "result": 6.7, "unit": "nM"}, {"measurement": "Mouse IGF-I EC50 (nM), n = 2, phosphorylation of hIGF-IR in NIH3T3 cells", "setting": "[4]", "result": 10.6, "unit": "nM"}, {"measurement": "Mouse IGF-II EC50 (nM), n = 1, phosphorylation of hIGF-IR in NIH3T3 cells", "setting": "[5]", "result": 5.4, "unit": "nM"}, {"measurement": "Mouse IGF-II EC50 (nM), n = 2, phosphorylation of hIGF-IR in NIH3T3 cells", "setting": "[5]", "result": 8.7, "unit": "nM"}, {"measurement": "Kd", "setting": "[6]", "result": 0.935, "unit": "nM"}, {"measurement": "% MAX Activation, mean (n = 2), IGF-I pTYR of hIGF-IR in NIH3T3 cells", "setting": "[7]", "result": 16.9, "unit": "%"}, {"measurement": "EC50 (nM), mean (n = 2), IGF-I pTYR of hIGF-IR in NIH3T3 cells", "setting": "[7]", "result": 14.5, "unit": "nM"}, {"measurement": "% MAX Activation, mean (n = 2), IGF-II pTYR of hIGF-IR in NIH3T3 cells", "setting": "[8]", "result": 15.9, "unit": "%"}, {"measurement": "EC50 (nM), mean (n = 2), IGF-II pTYR of hIGF-IR in NIH3T3 cells", "setting": "[8]", "result": 3, "unit": "nM"}, {"measurement": "Kd", "setting": "[9]", "result": 0.123, "unit": "nM"}, {"measurement": "EC50 (nM), n = 1, IGF-I pTYR, BxPC3 cells", "setting": "[10]", "result": 7.5, "unit": "nM"}, {"measurement": "EC50 (nM), n = 2, IGF-I pTYR, BxPC3 cells", "setting": "[10]", "result": 5.3, "unit": "nM"}, {"measurement": "Max % Inhibition (333.3 nM), n = 1, IGF-I pTYR, BxPC3 cells", "setting": "[10]", "result": 95.7, "unit": "%"}, {"measurement": "Max % Inhibition (333.3 nM), n = 2, IGF-I pTYR, BxPC3 cells", "setting": "[10]", "result": 95.2, "unit": "%"}, {"measurement": "EC50 (nM), n = 2, IGF-II pTYR, BxPC3 cells", "setting": "[11]", "result": 2.6, "unit": "nM"}, {"measurement": "Max % Inhibition (133.3 nM), n = 2, IGF-II pTYR, BxPC3 cells", "setting": "[11]", "result": 91.3, "unit": "%"}, {"measurement": "Max % Inhibition (333.3 nM), n = 1, IGF-II pTYR, BxPC3 cells", "setting": "[11]", "result": 100, "unit": "%"}, {"measurement": "Kd", "setting": "[12]", "result": 0.0474, "unit": "nM"}, {"measurement": "Kd", "setting": "[13]", "result": 0.123, "unit": "nM"}, {"measurement": "koff", "setting": "[13]", "result": 0.00043, "unit": "s⁻¹"}, {"measurement": "kon", "setting": "[13]", "result": "3.5e+06", "unit": "M⁻¹ s⁻¹"}, {"measurement": "Kd", "setting": "[14]", "result": 0.935, "unit": "nM"}, {"measurement": "koff", "setting": "[14]", "result": 0.0043, "unit": "s⁻¹"}, {"measurement": "kon", "setting": "[14]", "result": "4.6e+06", "unit": "M⁻¹ s⁻¹"}, {"measurement": "Kd", "setting": "[15]", "result": 0.452, "unit": "nM"}]}
{"binder": "mAb 7.34.1 (ATCC Accession Number PTA-7423) (antibody, V domains shown, Fully human, lambda light chain (V1-13/JL2)) VH: QVQLQESGPGLVKPSETLSLTCTVSGGSISSYYWSWIRQPPGRGLEWIGYFFYSGYTNYNPSLKSRVTMSVDTSKNQFSLKLSSVTAADTAVYYCACITGTTKGGMDVWGQGATVTVSS VL: QSVLTQAPSVSGAPGQRVTISCTGRSSNIGAGYDVHWYQQFPGTAPKLLIYGNSNRPSGVPDRFSGSKSGTSASLAITGLQAEDEADYYCQSYDSSLSGSVFGGGTKLTVLG", "values": [{"measurement": "Kd", "setting": "[16]", "result": "> 1000", "unit": "nM"}, {"measurement": "Kd", "setting": "[17]", "result": "> 1000", "unit": "nM"}, {"measurement": "LA OD, IGF1 2 ng/ml", "setting": "[18]", "result": 0.21, "unit": "OD 450 nm"}, {"measurement": "LA OD, IGF1 4 ng/ml", "setting": "[18]", "result": 0.44, "unit": "OD 450 nm"}, {"measurement": "LA OD, IGF2 2 ng/ml", "setting": "[19]", "result": 1.07, "unit": "OD 450 nm"}, {"measurement": "LA OD, IGF2 4 ng/ml", "setting": "[19]", "result": 1.84, "unit": "OD 450 nm"}, {"measurement": "binding result", "setting": "[20]", "result": "no binding (tested: 502 nM)"}]}
{"binder": "mAb 7.251.3 (ATCC Accession Number PTA-7422) (antibody, V domains shown, Fully human, lambda light chain (V1-13/JL2)) VH: QVQLQESGPGLVKPSETLSLTCTVSGGSISSYYWSWIRQPPGKGLEWIGYFFYSGYTNYNPSLKSRVTISVDTSKNQFSLKLSSVTAADTAVYYCACITGTTKGGMDVWGQGTTVTVSS VL: QSVLTQPPSVSGAPGQRVTISCTGSSSNIGAGYDVHWYQQLPGTAPKLLIYGNNNRPSGVPDRFSGSKSGTSASLAITGLQADDEADYYCQSFDSSLSGSVFGGGTKLTVLG", "values": [{"measurement": "Kd", "setting": "[16]", "result": "> 1000", "unit": "nM"}, {"measurement": "Kd", "setting": "[17]", "result": "> 1000", "unit": "nM"}, {"measurement": "LA OD, IGF1 2 ng/ml", "setting": "[18]", "result": 1.09, "unit": "OD 450 nm"}, {"measurement": "LA OD, IGF1 4 ng/ml", "setting": "[18]", "result": 1.31, "unit": "OD 450 nm"}, {"measurement": "LA OD, IGF2 2 ng/ml", "setting": "[19]", "result": 1.02, "unit": "OD 450 nm"}, {"measurement": "LA OD, IGF2 4 ng/ml", "setting": "[19]", "result": 1.53, "unit": "OD 450 nm"}, {"measurement": "binding result", "setting": "[20]", "result": "no binding (tested: 502 nM)"}]}
